Laboratory results taken from US11059864B2, “Chimeric antigen receptor (CAR) modulation” (TRUSTEES OF BOSTON UNIVERSITY, priority 2019, dated 2021).
Numbering of substitutions follows the chain as printed.

Assays:
NS3a-genotype 1b = NS3a-genotype 1b (Hepatitis C virus genotype 1b, UniProt P26662, S1165A); settings: read-out: affinity of basal complex with NS3a-genotype 1b; cited from earlier work
Jurkat T cells = assay: NS3 OFF CAR: CD69 levels in Jurkat cells (components on separate vectors); assay type: cell-based; settings: Jurkat cells expressing OFF-switch components; presence of grazoprevir
Procedure: (§1) FIG. 8A-8D is a series of schematics and graphs showing testing of variations of the NS3 OFF CAR in Jurkat T cells. […] Combinations of components were tested as indicated. Each was introduced on a separate vector.
(§2) Two different versions of the first component (c and d) and four different versions of the second component of the OFF-switch (i, ii, iii, and iv) were tested in Jurkat T cells. […] The OFF-switch CARs can also function when expressed in a single vector (see e.g., FIG. 9A-9C, FIG. 10A-10D).

[1] = tested on: Her2-expressing NALM cells; assay: Cell killing by Her2-specific NS3 CAR CD8+ T cells; assay type: cell-based, human
Procedure: FIG. 3A-3B is a series of graphs. FIG. 3A is a bar graph showing the killing efficiency of CD8+ T cells following expression of the NS3 CAR constructs or traditional CAR, in the presence or absence of GZV.
To further evaluate the downstream effector function of NS3 CAR T cells, their cell killing abilities were tested. Her2-specific NS3 CAR CD8+ T cells were mixed with Her2-expressing NALM cells at a 1:1 ratio and the extent of cell killing determined.
By varying the dose of NS3 inhibitor, the level of CD8+ T cell-mediated killing could be modulated.

NFAT = assay: NS3 OFF CAR: NFAT-GFP levels in Jurkat T cells (components on separate vectors); assay type: cell-based; settings: Jurkat T cells expressing two-component OFF-switch; presence of grazoprevir
Procedure: as §1
NS3 CAR OFF switches, comprising first and second components, were constructed as described herein. The first component comprises a peptide, which is specific for the NS3 of the second component, thus bringing the two components together.
as §2

NS3a/danoprevir complex = molecular target: T1, NS3a/danoprevir complex (Hepatitis C virus genotype 1a, UniProt P27958); settings: cited from earlier work
T1 construct: comprise the N-terminal 180 amino acids of the NS3 protein
T1 sequence (P27958 1027-1208, one chain of several): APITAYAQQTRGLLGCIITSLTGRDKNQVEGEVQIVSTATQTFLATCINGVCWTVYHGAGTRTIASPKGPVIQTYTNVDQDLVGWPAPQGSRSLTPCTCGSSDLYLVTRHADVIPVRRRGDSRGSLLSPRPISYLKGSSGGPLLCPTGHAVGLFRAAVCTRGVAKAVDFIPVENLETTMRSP

apo NS3a = molecular target: T2, apo NS3a (Hepatitis C virus genotype 1a, UniProt P27958); settings: cited from earlier work
T2 construct: comprise the N-terminal 180 amino acids of the NS3 protein
T2 sequence (P27958 1027-1208): as the sequence (P27958 1027-1208, one chain of several) above

asunaprevir-bound NS3a = molecular target: T3, asunaprevir-bound NS3a (Hepatitis C virus genotype 1a, UniProt P27958); settings: cited from earlier work
T3 construct: comprise the N-terminal 180 amino acids of the NS3 protein
T3 sequence (P27958 1027-1208): as the sequence (P27958 1027-1208, one chain of several) above

grazoprevir/NS3a complex = settings: cited from earlier work
Chain of grazoprevir/NS3a complex (P27958 1027-1208, one chain of several): as above

Her2+ target NALM cells [2] = assay: CD69 expression in CD4+ and CD8+ primary T cells expressing NS3 CARs mixed with target cells; assay type: cell-based; settings: human CD4+ and CD8+ primary T cells; presence or absence of grazoprevir and/or Her2+ target NALM cells
Text: (§3) FIG. 2A-2B is a series of bar graphs. FIG. 2A is a series of bar graphs showing CD69 expression in CD4+ and CD8+ T cells following expression of the NS3 CAR constructs or traditional CAR, in the presence or absence of GZV (Grazoprevir) and/or target cell. FIG. 2B is a series of bar graphs showing CD4+ and CD8+ T cell IL-2 and IFN-gamma cytokine release following expression the NS3 CAR constructs or traditional CAR, in the presence or absence of GZV and/or target cell.
(§4) These CARs were introduced into human CD4+ and CD8+ primary T cells and tested for functionality by mixing with Her2+ target NALM cells. As a readout for NS3 CAR control over T cell activity, levels of CD69 (an early T cell activation marker) and cytokine release (indicative of downstream effector function) were measured. It is expected that in the absence of grazoprevir (an NS3 inhibitor), the CAR is dismantled, rendering it non-functional. Once grazoprevir is added, the full CAR is assembled, thus allowing the T cell to activate when Her2-expressing target cells are present (see e.g., FIG. 1B).

Her2+ target NALM cells [3] = assay: IL-2 and IFN-gamma cytokine release by CD4+ and CD8+ primary T cells expressing NS3 CARs; assay type: cell-based; settings: human CD4+ and CD8+ primary T cells; presence or absence of grazoprevir and/or Her2+ target NALM cells
Text: as §3, §4

Chain of NS3a-genotype 1b (P26662 1029-1207 D1056E/L1062V/P1112Q/M1120L/V1140I/I1158V/S1165A/V1176A/I1196V): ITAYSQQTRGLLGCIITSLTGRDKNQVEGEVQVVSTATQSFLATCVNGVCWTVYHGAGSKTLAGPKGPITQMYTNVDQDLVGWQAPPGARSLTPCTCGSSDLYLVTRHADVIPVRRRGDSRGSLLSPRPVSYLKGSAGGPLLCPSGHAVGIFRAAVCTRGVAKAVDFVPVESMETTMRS

For “apo NS3a reader peptide GELDELVYLLDGPGYDPIHSD, SEQ ID NO: 204 [ANR]”, the Kd (NS3a-genotype 1b) is listed as 10 nM.

For C=C[C@@H]1C[C@]1(NC(=O)[C@@H]1C[C@@H]2CN1C(=O)[C@H](C(C)(C)C)NC(=O)O[C@@H]1C[C@H]1CCCCCc1nc3ccc(OC)cc3nc1O2)C(=O)NS(=O)(=O)C1CC1 [grazoprevir], the CD69 levels (Jurkat T cells) was “diminished to baseline”, the “cell killing ability versus level of NS3 inhibitor” value ([1]; CD8+ T cells expressing the V2 NS3 CAR, 1:1 ratio, NS3 inhibitor varied between 0 uM-5 uM) was “can be used to regulate the level of killing efficiency” and the “killing efficiency versus concentration of Grazoprevir” value ([1]; traditional CAR T cells or wild-type cells) was “does not impact traditional CAR T cells or wild-type cells”. The NFAT-GFP levels (NFAT) was “diminished to baseline”.

B1: DNCR2: danoprevir/NS3 complex reader domain, SEQ ID NO: 101, 229 aa (protein)
chain: SSDEEEARELIERAKEAAERAQEAAERTGDPRVRELARELKRLAQEAAEEVKRDPSSSDVNEALKLIVEAIEAAVDALEAAERTGDPEVRELARELVRLAVEAAEEVQRNPSSSDVNEALHSIVYAIEAAIFALEAAERTGDPEVRELARELVRLAVEAAEEVQRNPSSRNVEHALMRIVLAIYLAEENLREAEESGDPEKREKARERVREAVERAEEVQRDPSGWLNH
For B1, the “selectivity over NS3a bound to the drugs grazoprevir or asunaprevir” value (NS3a/danoprevir complex) is listed as > 20,000 fold, the Kd (NS3a/danoprevir complex; read-out: affinity for the NS3a/danoprevir complex) is listed as 0.036 nM and the “binding to apo NS3a” value (apo NS3a) is listed as “no detectable binding”.

B2: GNCR1: grazoprevir/NS3 complex reader domain, SEQ ID NO: 105, 233 aa (protein)
chain: DIEKLCKKAEEEAKEAQEKADELRQRHPDSQAAEDAEDLANLAVAAVLTACLLAQEHPNADIAKLCIKAASEAAEAASKAAELAQRHPDSQAARDAIKLASQAARAVILAIMLAAENPNADIAKLCIKAASEAAEAASKAAELAQRHPDSQAARDAIKLASQAAEAVERAIWLAAENPNADIAKKCIKAASEAAEEASKAAEEAQRHPDSQKARDEIKEASQKAEEVKERCKS
For B2, the “binding of NS3 in the presence of danoprevir (danoprevir-bound NS3a)” value (shortened to “binding of NS3 … (danoprevir-bound NS3a)”) (NS3a/danoprevir complex) is given as “little to no affinity”, the “binding of NS3 in the presence of asunaprevir (asunaprevir-bound NS3a)” value (“binding of NS3 … (asunaprevir-bound NS3a)” for short) (asunaprevir-bound NS3a) is given as “little to no affinity” and the “binding to apo NS3a” value (apo NS3a) is given as “little to no affinity”. The Kd (grazoprevir/NS3a complex; read-out: affinity for the grazoprevir/NS3a complex) was 140 nM.

B3: D5: reader domain, SEQ ID NO: 206, 229 aa (protein)
chain: SSDEEEARELIERAKEAAERAQEAAERTGDPRVRELARELKRLAQEAAEEVKRDPSSSDVNEALKLIVEAIEAAVDALEAAERTGDPEVRELARELVRLAVEAAEEVQRNPSSSDVNEALLTIVIAIEAAVNALEAAERTGDPEVRELARELVRLAVEAAEEVQRNPSSREVNIALWKIVLAIQEAVESLREAEESGDPEKREKARERVREAVERAEEVQRDPSGWLNH
For B3, the “binding of NS3 … (danoprevir-bound NS3a)” value (NS3a/danoprevir complex) is listed as “moderate binding”, the “binding of NS3 … (asunaprevir-bound NS3a)” value (asunaprevir-bound NS3a) is listed as “some binding” and the “binding of NS3 in the presence of grazoprevir” value (from here on “binding of NS3 … of grazoprevir”) (grazoprevir/NS3a complex) is listed as “moderate binding”.

B4: DNCR1: danoprevir/NS3 complex reader domain, SEQ ID NO: 207, 229 aa (protein)
chain: B3 chain with T122S, N132H, N173E, I174H, W177M, Q184Y, V187E
For B4, the “binding of NS3 … (danoprevir-bound NS3a)” value (NS3a/danoprevir complex) is listed as “high binding”, the “binding of NS3 … (asunaprevir-bound NS3a)” value (asunaprevir-bound NS3a) is listed as “minimal binding” and the “binding of NS3 … of grazoprevir” value (grazoprevir/NS3a complex) is listed as “minimal binding”.

B5: G5: reader domain, SEQ ID NO: 208 (named G3 in the sequence listing), 233 aa (protein)
chain: B2 chain with L42E, V44E, T49A, L52S
For B5, the “binding of NS3 … (danoprevir-bound NS3a)” value (NS3a/danoprevir complex) is given as “no binding”, the “binding of NS3 … (asunaprevir-bound NS3a)” value (asunaprevir-bound NS3a) is given as “some binding” and the “binding of NS3 … of grazoprevir” value (grazoprevir/NS3a complex) is given as “moderate binding”.

B6: Traditional CAR: traditional third-generation Her2 CAR without NS3; SEQ ID NO: 4, 37 (protein)
chain: ALPVTALLLPLALLLHAARPKYLLPTAAAGLLLLAAQPAMAQVQLVQSGAEVKKPGESLKISCKGSGYSFTSYWIAWVRQMPGKGLEYMGLIYPGDSDTKYSPSFQGQVTISVDKSVSTAYLQWSSLKPSDSAVYFCARHDVGYCTDRTCAKWPEYFQHWGQGTLVTVSSGGGGSGGGGSGGGGSQSVLTQPPSVSAAPGQKVTISCSGSSSNIGNNYVSWYQQLPGTAPKLLIYDHTNRPAGVPDRFSGSKSGTSASLAISGFRSEDEADYYCASWDYTLSGWVFGGGTKLTVLGGKPIPNPLLGLDSTNGAATTTPAPRPPTPAPTIALQPLSLRPEACRPAAGGAVHTRGLDFACDFWVLVVVGGVLACYSLLVTVAFIIFWVRSKRSRLLHSDYMNMTPRRPGPTRKHYQPYAPPRDFAAYRSKRGRKKLLYIFKQPFMRPVQTTQEEDGCSCRFPEEEEGGCELRVKFSRSADAPAYKQGQNQLYNELNLGRREEYDVLDKRRGRDPEMGGKPRRKNPQEGLYNELQKDKMAEAYSEIGMKGERRRGKGHDGLYQGLSTATKDTYDALHMQALPPR
In the case of B6, the CD69 expression (Her2+ target NALM cells [2]) is reported as “no response to the NS3 inhibitor” and the “IL-2 and IFN-gamma cytokine release” value (Her2+ target NALM cells [3]) is reported as “no response to the NS3 inhibitor”.
